The values that follow are results of earlier work, collected in article PMC5742237.

pKd: −log10 of the molar value. Read-outs that look alike come from different tables or passages of the source.

The target of data set [1] is Transhydrogenase domain I dimer domain I (Rhodospirillum rubrum) (UniProt Q2RSB2).
Data set [2] shares this target. The source holds these as a separate data set.

UniProt Q2RSB2, sequence (Q2RSB2 whole entry, the tested form may be a part): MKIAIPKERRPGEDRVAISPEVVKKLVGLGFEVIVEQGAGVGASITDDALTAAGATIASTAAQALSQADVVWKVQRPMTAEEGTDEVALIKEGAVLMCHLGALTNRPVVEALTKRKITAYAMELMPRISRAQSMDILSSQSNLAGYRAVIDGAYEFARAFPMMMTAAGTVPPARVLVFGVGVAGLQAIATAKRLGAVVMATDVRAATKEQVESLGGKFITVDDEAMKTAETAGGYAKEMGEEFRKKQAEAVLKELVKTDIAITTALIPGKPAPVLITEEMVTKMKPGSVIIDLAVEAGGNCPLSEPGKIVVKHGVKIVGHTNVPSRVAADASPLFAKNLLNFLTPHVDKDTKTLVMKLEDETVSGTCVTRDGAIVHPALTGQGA

For orientation: pKd means the Kd on a negative log10 scale, so that one unit is a factor of ten. With “Transhydrogenase domain III (second) domain III (from UniProt Q2RSB4)”, the pKd in data set [1] is 5.00.

On to “Transhydrogenase domain III domain III (from UniProt Q2RSB4)”, for which, in data set [2], the negative logarithm of the Kd (pKd) is above 7.22.
